In the supplement of paper PMC9732359:
± gives the uncertainty stated by the source.

Assay: protein stability index of a GFP-peptide fusion (yeast GPS) (PSI 1-4); higher = more stable; sorted into four equal gates, so the index is relative within each strain
Procedure, shortened: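 Plasmids isolated from each sorting gate were PCR-amplified and Illumina-sequenced, and barcodes assigned the reads to strains. The gates, four of equal size, were set by GFP/Cherry fluorescence ratio on mid-log cultures in leucine-free medium. These cultures were yeast carrying a pooled library of tiled 17-residue yeast protein peptides fused downstream of GFP on a plasmid that also expresses Cherry. The protein stability index is the sum of every gate's read frequency times its gate number.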

| Sequence | protein stability index (doa10∆) | protein stability index (pdr5∆) | protein stability index (san1∆) | protein stability index (ubr1∆) |
| --- | --- | --- | --- | --- |
| MIQPPQQGQNMSEQQWR [ROX3] | 2.15 ± 0.082 | 2.38 ± 0.06 | 2.39 ± 0.093 | 2.19 ± 0.033 |
| DHSMILPSGVLSRGDDE [SMC3] | 3.08 ± 0.094 | 2.51 ± 0.082 | 2.19 ± 0.12 | 2.39 ± 0.04 |
| RKSVFAPLNFNPIIENN [SSN2] | 2.65 ± 0.058 | 2.98 ± 0.073 | 2.75 ± 0.06 | 2.71 ± 0.069 |
| DVVMKATEPQMVLFNIY [PRP8] | 2.03 ± 0.046 | 1.76 ± 0.049 | 1.58 ± 0.078 | 1.77 ± 0.043 |
| ARVLSNYLRQQCNYSSL [PRE5] | 2.71 ± 0.17 | 2.96 ± 0.11 | – | 2.78 ± 0.087 |
| YSTANEYIIAAIRKAPH [RPN3] | 2.82 ± 0.061 | 2.64 ± 0.052 | 2.62 ± 0.042 | 2.62 ± 0.047 |
| LRIGRIEDVTPVPSDST [RPS14B] | 2.91 ± 0.037 | 2.98 ± 0.043 | 2.78 ± 0.04 | 2.92 ± 0.037 |
| SYESLKKRKIHNGREGS [MCD1] | 1.7 ± 0.04 | 1.91 ± 0.041 | 1.69 ± 0.062 | 2 ± 0.032 |
| PSELNQLKMVNERELNV [RPC82] | 3.14 ± 0.13 | 2.94 ± 0.15 | – | – |
| MSLKDKLLIQIDELSNG [SMC1] | 2.27 ± 0.084 | 2.34 ± 0.11 | 3.08 ± 0.11 | 2.52 ± 0.1 |
| RFNFISKYFIIDSFFLY [YMR129W/POM152] | 1.58 ± 0.061 | 1.24 ± 0.072 | 1.31 ± 0.12 | 1.12 ± 0.059 |
| RVGGGGTGRSGQGAFGN [RPL4A] | 3.54 ± 0.13 | 3.52 ± 0.11 | 3.54 ± 0.066 | 3.34 ± 0.1 |
| EIDHVEYYVMMDFANLW [SRB8] | 2.98 ± 0.067 | 2.69 ± 0.054 | 2.81 ± 0.056 | 2.92 ± 0.036 |
| KVDIPLEVVQYIEDGRN [NUT2] | 2.46 ± 0.066 | 1.59 ± 0.065 | 1.34 ± 0.094 | 1.59 ± 0.046 |
| ILEHTLFKGTGFNSWEG [PRP8] | 2.42 ± 0.12 | 2.41 ± 0.12 | 3.38 ± 0.13 | 1.64 ± 0.039 |
| EKPLVVPVKLEEIKTVD [RRP6] | 2.52 ± 0.13 | 2.42 ± 0.07 | 2.76 ± 0.16 | 2.38 ± 0.068 |
| RKNYMHVKNFGFANSLT [YML031W/NDC1] | 1.18 ± 0.11 | 1.9 ± 0.11 | 2.3 ± 0.14 | 2.85 ± 0.063 |
| KLALAENDTNMNETLNL [SMC4] | 3.15 ± 0.13 | 3.15 ± 0.077 | 3.04 ± 0.1 | 2.85 ± 0.089 |
| AHNPELERYVKRCMDDL [RPO31] | 3.33 ± 0.062 | 3.45 ± 0.062 | 3.41 ± 0.037 | 3.35 ± 0.04 |
| EDPDQEECSGRRWNKLC [YGL100W/SEH1] | 2.24 ± 0.07 | 2.16 ± 0.083 | 1.88 ± 0.1 | 2.27 ± 0.057 |
| MPFNDQGIVPDIIMNPH [RET1] | 2.71 ± 0.075 | 2.92 ± 0.059 | 2.87 ± 0.052 | 3.09 ± 0.042 |
| LQISDIPAAGNNRSVSM [SRB5] | 2.77 ± 0.075 | 2.35 ± 0.07 | 2.4 ± 0.083 | 2.8 ± 0.06 |
| TTGGDYILSLVSIKDST [YMR129W/POM152] | 1.99 ± 0.042 | 2.04 ± 0.034 | 1.89 ± 0.052 | 1.68 ± 0.028 |
| TDNMSGRGLWNPSYPGM [YJL039C/NUP192] | 3.14 ± 0.26 | 3.11 ± 0.18 | – | 2.84 ± 0.26 |
| PSFVKSGKLRDYQVQGL [ISW2] | 3.33 ± 0.076 | 3.39 ± 0.071 | 3.22 ± 0.039 | 3.31 ± 0.058 |
| SRTGPVFDLCWNSLMYA [RRP43] | 2.64 ± 0.06 | 2.45 ± 0.048 | 2.6 ± 0.048 | 2.41 ± 0.032 |

| Sequence | protein stability index (doa10∆) | protein stability index (pdr5∆) | protein stability index (san1∆) | protein stability index (ubr1∆) |
| --- | --- | --- | --- | --- |
| NVVIDEAVEIPVNSADG [SME1] | 2.97 ± 0.084 | 3.35 ± 0.068 | 3.24 ± 0.041 | 2.98 ± 0.045 |
| KRVSGTSQHSDSLTQNN [YOR098C/NUP1] | 2.5 ± 0.088 | 2.71 ± 0.055 | 2.73 ± 0.072 | 2.68 ± 0.054 |
| VEKTLLSDVAFYVQDVY [RPO31] | 2.11 ± 0.22 | 3.14 ± 0.23 | – | 2.49 ± 0.15 |
| VSNISCLTGTVAARMFH [ECM29] | 1.66 ± 0.042 | 1.59 ± 0.039 | 2.28 ± 0.087 | 2.19 ± 0.045 |
| LRDRNFSATGNFGFGID [RPL11A] | 3.23 ± 0.069 | 3.28 ± 0.072 | 2.93 ± 0.1 | 3.25 ± 0.053 |
| ENIIIVGGTTSISGFKE [ARP9] | 2.13 ± 0.092 | 2.2 ± 0.06 | 2.64 ± 0.07 | 2.88 ± 0.054 |
| EYRPFSKKVLECLPAEG [DIS3] | 1.39 ± 0.13 | 1.68 ± 0.12 | 1.46 ± 0.1 | 1.56 ± 0.068 |
| NQVTDSSQLNKLTDEQS [SIR3] | 2.71 ± 0.063 | 2.74 ± 0.069 | 2.82 ± 0.07 | 2.68 ± 0.072 |
| RNPARLMETLRTLRRKG [RPB2] | 2.28 ± 0.077 | 3.06 ± 0.086 | 2.47 ± 0.089 | 2.87 ± 0.13 |
| ILRRQAILRQQQQMANN [GAL11] | 2.49 ± 0.15 | 3.02 ± 0.16 | 2.62 ± 0.18 | 2.65 ± 0.13 |
| SEKRLDHFIHLRNLHMK [SNF12] | 2.75 ± 0.051 | 2.73 ± 0.043 | 2.74 ± 0.052 | 2.62 ± 0.037 |
| LPNKSTISKTVSSTIPR [FAS2] | 2.01 ± 0.072 | 2.63 ± 0.077 | 2.92 ± 0.11 | 2.94 ± 0.084 |
| LNSLLTYIKSEITQQEK [SMC4] | 2.77 ± 0.066 | 2.04 ± 0.055 | 2.73 ± 0.071 | 2.63 ± 0.06 |
| HPIMETIVNDSNYDWLF [RPN9] | 2.42 ± 0.058 | 2.34 ± 0.057 | 2.16 ± 0.085 | 2.66 ± 0.052 |
| QTQEFFLSSFDDVLQTI [YJL039C/NUP192] | 2.65 ± 0.046 | 2.27 ± 0.048 | 2.32 ± 0.047 | 2.51 ± 0.034 |
| QLAIRNDDELNKLLGNV [HTA1] | 3.31 ± 0.14 | 3.38 ± 0.071 | 3.23 ± 0.064 | 3.43 ± 0.078 |
| SIGINDVTPADDLKQKK [RPO31] | 2.99 ± 0.25 | – | – | – |
| SLPEFFTNRIPSKTPEV [SWI3] | 2.56 ± 0.066 | 2.53 ± 0.054 | 2.65 ± 0.062 | 2.66 ± 0.059 |
| QSISQNSSSSTPNTNSN [SWI1] | 2.73 ± 0.055 | 2.8 ± 0.049 | 2.9 ± 0.051 | 2.82 ± 0.048 |
| QGKPYISLPKGKGIKLS [RPS4A] | 3.29 ± 0.07 | 3.33 ± 0.081 | 2.84 ± 0.06 | 2.45 ± 0.073 |
| GVPNYLVQLEPHLFVNG [SSN2] | 1.96 ± 0.069 | 1.97 ± 0.063 | 1.94 ± 0.084 | 1.96 ± 0.12 |
| KGSVAAKTFLEKRWNDE [PRE8] | 2.38 ± 0.18 | 1.28 ± 0.17 | – | – |
| KWGRNQPVNINLDSSIT [YMR129W/POM152] | 2.54 ± 0.094 | 2.7 ± 0.076 | 2.71 ± 0.099 | 2.52 ± 0.07 |
| GSCTGKFGYILCVLDYD [RPB7] | 2.3 ± 0.084 | 2.54 ± 0.061 | 2.38 ± 0.067 | 2.31 ± 0.055 |
| SFNCENFFQAPQDYVLE [YML031W/NDC1] | 3.07 ± 0.079 | 3.06 ± 0.082 | 3.09 ± 0.07 | 3.11 ± 0.067 |
